We go through 4 molecules from PMC7188823, “The BRCA2-MEILB2-BRME1 complex governs meiotic recombination and impairs the mitotic BRCA2-RAD51 function in cancer cells” (Nature Communications, 2020).

The labels stand for the following.
B3: MEILB2 C-terminus (a.a. 87–338) (domain or fragment, mouse, UniProt Q9D4G2 87-338, looked up)
chain: ARLETAQADSGREKKEKLALRQQLNEAKQQLLQQAEYCTQMGAVTCTLLWGVSSSEEVVKTILGGDKALKFFNITGQTMESFVKSLDGDVKEVDSDENQFVFALAGIVTNVAAIACGREFLVNSSRVLLDTMLQLLGDLKPGQCTKLKVLMLMSLYNVSINSKGLKYITESPGFIPLLWWLLSDPDAEVCLHTLRLIQSVVLEPDVFSKVASELQSSLPLQRILAMSKSRNSHLQSAAQELLEDLRALDCNV
notes: MEILB2/HSF2BP, mouse, a.a; 87-338 (27.9 kDa in theory); pET-Duet for the co-expression, pSmt3 for the protein alone; also called mMEILB2 a.a; 87–338; source: E. coli BL21(DE3), purified (Ni-NTA, Ulp1 cleavage, cation exchange, size-exclusion chromatography); expressed alone or co-expressed with BRCA2 (a.a. 2219–2285); not shown: 10x His-Smt3, N-terminal, cleaved

The target in data set [1] is MEILB2 α1+2 (tag removed) (mouse). In words: SEC-MALS; Superdex 200 Increase 10/300 GL; 20 mM Tris (pH 8.0), 150 mM KCl, 2 mM DTT; samples at >1 mg/ml; MEILB2 fragments alone or as purified complexes with BRME1-MBD.
Data set [2] addresses MEILB2 α1 (a.a. 18–55; tag removed) (mouse) (UniProt Q9D4G2). Described as above.
Data set [3] deals with the molecule itself. Described as above.
Data set [4] concerns the target B3. Put plainly: SEC-MALS; purified MEILB2 (a.a. 87–338)-BRCA2 (a.a. 2219–2285) heterocomplex; 500 µg on Superdex 200 10/300 at 0.5 ml/min. The settings on record: both partners purified.
The target of data set [5] is T1, MEILB2 C-terminus (a.a. 87–338) (Mus musculus (Mouse), UniProt Q9D4G2).
T1 chain: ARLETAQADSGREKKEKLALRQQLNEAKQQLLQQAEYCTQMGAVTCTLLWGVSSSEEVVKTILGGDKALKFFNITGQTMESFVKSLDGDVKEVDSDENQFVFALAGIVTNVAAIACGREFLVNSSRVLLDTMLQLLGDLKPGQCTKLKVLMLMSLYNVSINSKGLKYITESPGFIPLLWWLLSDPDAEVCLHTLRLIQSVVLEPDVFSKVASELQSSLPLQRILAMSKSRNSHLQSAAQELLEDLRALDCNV
In words: co-expression co-purification, SEC and SEC-MALS.

Data set [6] concerns the molecule itself. In words: SEC-MALS; individual proteins; 500 µg on Superdex 200 10/300 at 0.5 ml/min.
Data set [7] concerns the molecule itself. Put plainly: SEC-MALS; purified MEILB2 (a.a. 87–338)-BRCA2 (a.a. 2219–2285) heterocomplex; 500 µg on Superdex 200 10/300 at 0.5 ml/min.

In the case of “BRME1-MBD (a.a. 519–600), recombinant, His-tagged (from UniProt Q6DIA7 519-600) (domain or fragment)”, the stoichiometry N (BRME1-MBD per MEILB2 chain (2:2)) in data set [1] and in data set [2] was 1 each time.

B1: MEILB2 α1 (a.a. 18–55; tag removed) (domain or fragment, mouse, UniProt Q9D4G2 18-55, looked up)
chain: MESKEEFVKVRKKDLERLTTEVMQIRDFLPRILNGELL
notes: MEILB2/HSF2BP, mouse, α1, a.a; 18-55; source: E. coli BL21 (DE3), purified (Ni-NTA, amylose, ion exchange, TEV cleavage, size-exclusion chromatography); not shown: MBP, N-terminal, cleaved
As to B1, the “stoichiometry N” value in data set [3] worked out at 4 chains in the oligomer.

B2: BRCA2-MBD fragment (a.a. 2219–2285) (domain or fragment, mouse, UniProt P97929 2219-2285, looked up)
chain: KRGGVTVDAVGQPPIKRSLLNEFDRIIESKGKSLTPSKSTPDGTVKDRSLFTHHMSLEPVTCGPFCS
notes: BRCA2, mouse, a.a; 2219-2285 (7.4 kDa in theory by the text); the His-Smt3 tag holds for the protein expressed alone (pSmt3); in the co-expression (pET-Duet) BRCA2 was untagged; also called mBRCA2 a.a; 2219–2285; source: E. coli BL21(DE3), purified (Ni-NTA, Ulp1 cleavage, size-exclusion chromatography, cation exchange); expressed alone or co-expressed untagged with His-Smt3-MEILB2 (a.a. 87–338)
In the case of B2, the “stoichiometry N” value in data set [4] is ~0.5 BRCA2 per MEILB2 chain (4:2 MEILB2:BRCA2). Also, the binding result in data set [5] is listed as “binds”. For B3, the “stoichiometry N” value in data set [6] stood at 2 chains in the oligomer; in data set [7], 4 chains in the oligomer.
